{"source": "patent EP4785962A1", "about": "“ANTIBODY-DRUG CONJUGATE TARGETING TROP2, AND PREPARATION METHOD AND USE THEREFOR” (priority 2023, dated 2025)", "molecules": {"B1": {"name": "hTINA1-DXd: control ADC: antibody hTINA1 conjugated with Linker-DXd, average DAR 4.3; TROP2-ADC from Daiichi Sankyo (conjugate, chains of the INN, looked up)", "VH": "QVQLVQSGAEVKKPGASVKVSCKASGYTFTTAGMQWVRQAPGQGLEWMGWINTHSGVPKYAEDFKGRVTISADTSTSTAYLQLSSLKSEDTAVYYCARSGFGSSYWYFDVWGQGTLVTVSS", "VL": "DIQMTQSPSSLSASVGDRVTITCKASQDVSTAVAWYQQKPGKAPKLLIYSASYRYTGVPSRFSGSGSGTDFTLTISSLQPEDFAVYYCQQHYITPLTFGQGTKLEIK", "modifications": "deruxtecan (Linker-DXd), DAR 4.3", "notes": "control ADC: antibody hTINA1 conjugated with Linker-DXd, average DAR 4.3; TROP2-ADC from Daiichi Sankyo"}}, "assay": "ADC in vivo stability assay in mice (serum ELISA for ADC and total antibody)", "parameters": "species or system Balb/c mice", "conditions": "10 mg/kg via the tail vein", "protocol": "• 1. The antibody-drug conjugate was injected into Balb/c mice (Vital River) via the tail vein at a dose of 10 mg/kg, and blood was collected at 0.083 h, 0.5 h, 2 h, 6 h, 24 h, 48 h, 96 h, 168 h, 336 h, and 504 h after administration (FIG. 10A). The blood samples were left to stand at room temperature and centrifuged to collect serum, so as to test the stability of the drug in the mice. • 2. Antibody detection: TROP2 protein (ACRO, cat: TR2-H5223, lot: 2573-2316F1-1B9) was coated and incubated overnight at 4 °C (FIG. 10A). The coating protein solution was removed, and 300 µL of wash buffer (0.05% Tween 20) was added to each well for repeated washing 3 times. 200 µL of blocking solution (5% skim milk powder) was added to each well, and the plate was blocked at room temperature for 2 h. The blocking solution was discarded, and the plate was washed 3 times with 300 µL of wash buffer per well. The diluted standards, quality control samples, and mouse serum samples to be tested were added to the well plate and incubated at room temperature for 2 h. The sample solution was discarded, and 300 µL of wash buffer was added to each well for 3 times of repeated washing. Anti-hFc-HRP (BETHYL, cat:A80-104P, lot: 97) was diluted 20000-fold and added at 100 µL/well, and the plate was incubated at room temperature for 1 h. The liquid was removed, and 300 µL of wash buffer was added to each well for 6 times of repeated washing. 100 µL of TMB substrate (Solarbio, cat:PR1200, lot: 20230418) was added to each well, and the color development was performed at room temperature for 5-10 min in the dark. 50 µL of ELISA stop solution (Beijing Solarbio C1058 20190620) was added to each well, medium-speed shaking for 10 s, within 30 min, the OD values at 450 nm and 620 nm were read on a microplate reader (USA, Thermo Multiskan FC AS-A1-008). • 3. Antibody-drug conjugate ADC detection: an anti-payload antibody 18E7C9 (innovent, lot: 20220424) was coated and incubated at 4 °C overnight (FIG. 10A). The coating protein solution was discarded, and 300 µL of wash buffer (0.05% Tween 20) was added to each well for 3 repeated washes. 200 µL of blocking solution (5% skim milk powder) was added to each well, and the plate was blocked at room temperature for 2 h. The blocking solution was discarded, and the plate was washed 3 times with 300 µL of wash buffer per well. The diluted standards, quality control samples, and mouse serum samples to be tested were added to the well plate and incubated at room temperature for 2 h. The sample solution was discarded, and 300 µL of wash buffer was added to each well for 3 times of repeated washing. Biotinylated TROP2 protein (ACRO, cat: TR2-H82E5, lot:BV3055-91PF1-ZC) was added to the microplate and incubated at room temperature for 2 h. The liquid was removed, and 300 µL of wash buffer was added to each well for 3 times of repeated washing. SA-HRP (Biolegend, cat:405210, lot: B339457) was diluted 20,000-fold and added at 100 µL/well, and the plate was incubated at room temperature for 1 h. The liquid was removed, and 300 µL of wash buffer was added to each well for 6 times of repeated washing. 100 µL of TMB substrate (Solarbio, cat:PR1200, lot: 20230418) was added to each well, and the color development was performed at room temperature for 5-10 min in the dark. 50 µL of ELISA stop solution (Beijing Solarbio C1058 20190620) was added to each well, medium-speed shaking for 10 s, within 30 min, the OD values at 450 nm and 620 nm were read on a microplate reader (USA, Thermo Multiskan FC AS-A1-008)."}
{"molecule": "B1", "values": [{"measurement": "AUC", "setting": "Analysis Type ADC", "value": 12053.60, "unit": "µg·h/mL"}, {"measurement": "Cl_obs", "setting": "Analysis Type ADC", "value": 19.9, "unit": "mL/day/kg"}, {"measurement": "T-half", "setting": "Analysis Type ADC", "value": 154.59, "unit": "h"}, {"measurement": "AUC", "setting": "Analysis Type Total-Ab", "value": 35805.22, "unit": "µg·h/mL"}, {"measurement": "Cl_obs", "setting": "Analysis Type Total-Ab", "value": 6.72, "unit": "mL/day/kg"}, {"measurement": "T-half", "setting": "Analysis Type Total-Ab", "value": 374.37, "unit": "h"}]}
